One may read the EC50 as the concentration at which the effect is half-maximal. Low readings indicate a more potent agent, high ones a less potent agent.

Assay [1] relates to human PBMCs (CD4 and CD8 T cells). The assay can be described thus: Restoration of CD25 and CD69 activation markers on NECA-suppressed CD4 and CD8 T cells. Type of assay: cell-based. The procedure: (§1) Two hundred thousand (2×10^5) human peripheral blood mononuclear cells (PBMCs) human PBMC in complete IMDM medium were aliquoted into each well in a 96-well plate and the cells in the 96-well plate were pre-incubated with antibodies or small molecule inhibitors at indicated concentration for 90 minutes, followed by addition of T cell activator anti-CD3/28 dynabeads (Gibco, Cat #11132D) at ratio of 1:4 (Beads: PBMC, v/v) and NECA (DiscoverX, Cat #92-1191, final concentration […]). Cells were cultured in an incubator at 37° C., 5% CO2 for 24 hours. Cells were then collected and stimulated with anti-CD3/28 dynabeads in the presence of GolgiPlug™ Protein Transport Inhibitor (BD Biosciences, Cat #555028) according to manufacturer's manual for 4 hours. Thereafter, cells were incubated with human TruStain FcX block (Biolegend, Cat #422302) and True-Stain monocyte blocker (Biolegend, Cat #426103) for 15 minutes according the manufacturer's manual, and cells were then stained with surface markers PE-anti-CD4 (Biolegend, Cat #300550), PerCP-cy5.5-anti-CD8 (Biolegend, Cat #301032), APC/cy7-anti-CD3 (Biolegend, Cat #300426) and PE/cy7-anti-CD56 (Biolegend, Cat #362509), PE/cy7-anti-CD56 (Biolegend, Cat #362509), BV711-anti-CD25 (Biolegend, Cat #302636) and BV605-anti-CD69 (Biolegend, Cat #31938 After wash with FACS buffer, cells were stained with BV421-anti-IFN-γ (BD Bioscience, Cat #562988) and APC anti-IL-2 (BD Bioscience, cat #551383) using intracellular cytokine staining kit (BD Biosciences, cat #555028) following manufacturer's instruction. Stained samples were analyzed on FACSAria III machine. Data were analyzed using Flowjo software.

The test system of assay [2] is human PBMCs (CD4 T, CD8 T, NK cells). The assay can be described thus: Restoration of IFN-γ and IL-2 production of NECA-suppressed T cells and NK cells (intracellular cytokine staining). Type of assay: cell-based. As to conditions: NECA. The procedure: as §1
The target of assay [3] is T1, human A2aR-expressing CHO cells (Homo sapiens, UniProt P29274).
T1 construct: expressed in transfected cells; host or cells: CHO
The assay is described as follows: pH-sensitive dye (Zenon pHrodo iFL RED) based internalization assay. Type of assay: cell-based. As to conditions: 24 hours. The source says:
The Invitrogen™ Zenon™ pHrodo™ iFL RED human IgG Labeling Reagents (Cat. Z25612) Z25612) is low-pH sensitive dye and was used to determine the internalizing properties of the exemplary anti-A2aR antibodies following manufacture's instruction. The internalization of antibodies coupled with the Zenon™ pHrodo™ iFL RED human IgG Labeling reagents increase the fluorescence signal at low pH intracellular compartment in a cell, providing a method for visualizing internalization under fluorescent microscopy.
Twenty-five microliters (25 μL) of 4× working solution of Zenon™ pHrodo™ iFL IgG Labeling Reagent were also prepared in freestyle CHO expression medium and then added to each well of a 96-well plate containing antibodies. The solutions in the 96-well plate were mixed and incubated for 5 minutes at room temperature to allow the labeling complexes to form. Afterwards, fifty microliters (50 μl) of 2×10^6/ml human A2aR-expressing CHO cells were added to each well containing labeled antibodies. Cells were then incubated with the labeling complex for 24 hours under standard cell culture conditions. Cells were analyzed under immunofluorescent microscope (Invitrogen EVOS cell imaging system M5000) to visualize the internalization of antibodies by cells. Internalization of antibody was imaged using EVOS imaging systems (Invitrogen).

Assay [4] addresses T2, human adenosine A2A receptor (A2aR) (human, UniProt P29274 1-412). The assay can be described thus: cell-based or functional assay.
Assay [5] concerns the target T2, human adenosine A2A receptor (A2aR). The assay is described as follows: flow cytometry titration, HEK293-hA2aR cells, purified antibody. (In general: Flow cytometry measures light scatter and fluorescence of single cells or particles in a stream.)
For assay [6] the target is unchanged. The assay can be described thus: flow cytometry, HEK293-hA2aR cells, supernatant 1 ug/ml, average of quadruplicate.
Assay [7] shares this target. The assay is described as follows: flow cytometry, HEK293-hA2aR cells, supernatant 1 ug/ml, average of triplicate.
For assay [8] the target is unchanged. The assay is described as follows: flow cytometry titration, HEK293-hA2aR cells, purified antibody, average of 7 repeats.
The target of assay [9] is cynomolgus adenosine A2A receptor (A2aR) (cynomolgus). The assay can be described thus: flow cytometry on PBMC, donor Cynomolgus 2.
Assay [10] has as its target T2, human adenosine A2A receptor (A2aR). The assay can be described thus: flow cytometry on PBMC, donor human 2.
The target is the same in assay [11]. The assay is described as follows: flow cytometry on PBMC, donor human 1.
Assay [12] has as its target cynomolgus adenosine A2A receptor (A2aR) (cynomolgus). The assay is described as follows: flow cytometry on PBMC, donor Cynomolgus 1.
In assay [13] the target is T2, human adenosine A2A receptor (A2aR). The assay is described as follows: flow cytometry, HEK293-hA2aR cells, supernatant 1 ug/ml.
Assay [14] has the same target. The assay is described as follows: cell-based or functional assay. This is another data set of the same source.
Assay [15] has the same target. The assay is described as follows: cell-based or functional assay. The source holds these as a separate data set.

Substitutions are numbered along the chain they refer to. In names and notes the source's numbering stands. Read-outs that look alike come from different tables or passages of the source.

T2 sequence (P29274 whole entry): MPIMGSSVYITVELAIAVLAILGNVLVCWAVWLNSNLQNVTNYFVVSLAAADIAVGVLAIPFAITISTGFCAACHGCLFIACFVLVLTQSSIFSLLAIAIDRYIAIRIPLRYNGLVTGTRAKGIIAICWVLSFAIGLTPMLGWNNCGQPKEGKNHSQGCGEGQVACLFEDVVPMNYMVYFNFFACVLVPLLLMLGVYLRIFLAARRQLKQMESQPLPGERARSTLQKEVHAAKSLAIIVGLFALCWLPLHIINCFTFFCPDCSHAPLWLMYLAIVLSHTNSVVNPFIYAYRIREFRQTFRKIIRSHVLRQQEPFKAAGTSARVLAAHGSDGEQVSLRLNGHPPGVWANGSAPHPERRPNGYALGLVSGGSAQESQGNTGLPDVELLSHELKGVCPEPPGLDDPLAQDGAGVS
T1 sequence (P29274 whole entry): as above

For `Cc1c(C#N)cccc1-c1cc(-c2cn(Cc3cccc(C(C)(C)O)n3)nn2)nc(N)n1` [AB928], in assay [1] (test substance 1 μg/ml), the “% of cells CD25+, CD4 T cells” value is given as 59.7%; the “% of cells CD25+, CD8 T cells” value stood at 32.7%; the “% of cells CD69+, CD4 T cells” value came out at 57.6%; the “% of cells CD69+, CD8 T cells” value was 55.3%. Besides, in [2] (test substance 1 μg/ml), the “% of cells IFNγ+, CD4 T cells” value is on record as 4.07%; the “% of cells IFNγ+, CD8 T cells” value was determined as 14.4%; the “% of cells IFNγ+, NK cells” value came to 15%; the “% of cells IL-2+, CD4 T cells” value is 13.1%. Also, the “% of cells IL-2+, CD8 T cells” value in [2] (test substance 1 μg/ml) was found to be 3.15%. Further, in assay [3], the “induction of internalization (pHrodo fluorescence microscopy, FIG. 3)” value is “did not induce internalization”.
With `Cc1ccc(-c2nc(N)nc3c2nnn3Cc2cccc(CO[C@H]3CCOC3)n2)o1` [CPI-444], in assay [1] (test substance 2 μg/ml), the “% of cells CD25+, CD4 T cells” value was 62.9%; the “% of cells CD25+, CD8 T cells” value is given as 35.9%; the “% of cells CD69+, CD4 T cells” value came to 52.3%; the “% of cells CD69+, CD8 T cells” value is recorded as 52.3%. In [2] (test substance 2 μg/ml), the “% of cells IFNγ+, CD4 T cells” value stood at 3.66%; the “% of cells IFNγ+, CD8 T cells” value is 11.6%; the “% of cells IFNγ+, NK cells” value worked out at 15.1%; the “% of cells IL-2+, CD4 T cells” value is on record as 12.7%. Besides, in [2] (test substance 2 μg/ml), the “% of cells IL-2+, CD8 T cells” value amounted to 3.05%. In addition, in [3], the “induction of internalization (pHrodo fluorescence microscopy, FIG. 3)” value is recorded as “did not induce internalization”.

B1: 3F8-12E9 (antibody, from another filing, V domains shown)
VH: QVQLQQPGTELVKPGAPVKLSCKASGFTFTRYWMNWVKQRPGRGLEWIGRIDPSDSETHYNHKFWGKATLTVDKSSSTAYIQLNSLTSEDSAVYYCLRSLYGKGDYWGQGTTLTVSS
VL: DVLMTQTPLSLSVGLGDQASISCRSSQSIVHSNGNTYLEWYLQRPGQSPKLLIYKVSNRFSGVPDRFSGSGSGTDFTLKISRVEAEDLGVYYCYQGSHVPLTFGSGTKLEIK
For the molecule B1, in assay [4], the IC50 of blocking activity, cAMP-Glo, 300 nM NECA, HEK293-hA2aR cells, supernatant (average of triplicate) was 1 nM. In assay [5], this molecule yielded a half-maximal effective concentration (EC50) of 0.48 nM. Besides, the MFI in assay [6] came to 1920 MFI.

B2: 1B5-3D7 (antibody, from another filing, V domains shown)
VH: B1 VH with A24T, Y32F, K38R, S54Y, H59Q, G66D, K67R, A79V, N84S, L97G
VL: B1 VL with T7S, S12P, G14S, D75Y, K79R, V90I, Y94F, K108T, I111L
On to B2, for which the MFI in [7] turned out to be 1960 MFI.

B3: 3F6-9G5 (antibody, from another filing, V domains shown)
VH: B1 VH with K19R, T28A, R31S, K38R, T58A, N61H, A79V, S85G, Q109H
VL: B1 VL with G14R, I29L, S32R
For B3, the MFI in assay [7] was 2040 MFI. In addition, in assay [4], the IC50 of blocking activity, cAMP-Glo, 300 nM NECA, HEK293-hA2aR cells, supernatant (average of triplicate) came to 1.3 nM; the IC50 of blocking activity, cAMP-Glo, 1.25 uM NECA, HEK293-hA2aR cells, purified antibody turned out to be 0.53 nM; the IC50 of blocking activity, cAMP-Glo, 5 uM Adenosine, HEK293-hA2aR cells, purified antibody stood at 0.93 nM. In addition, in [8], the EC50 worked out at 0.71 nM. Also, in assay [9], the % of A2aR+ CD4+ T cells is 3.26%, the % of A2aR+ CD8+ T cells is 0.14%, the % of A2aR+ NK cells came out at 2.63% and the % of A2aR+ NKT cells came to 1.14%. In assay [10], this molecule returned a % of A2aR+ CD4+ T cells of 0.48%, a % of A2aR+ CD8+ T cells of 0.03%, a % of A2aR+ NK cells of 0.99% and a % of A2aR+ NKT cells of 0.47%. In assay [11], the % of A2aR+ CD4+ T cells was 0.67%, the % of A2aR+ CD8+ T cells is 0.06%, the % of A2aR+ NK cells came out at 1.15% and the % of A2aR+ NKT cells was 0.62%. Further, in assay [12], the % of A2aR+ CD4+ T cells amounted to 1.36%, the % of A2aR+ CD8+ T cells was found to be 0.06%, the % of A2aR+ NK cells came to 3.34% and the % of A2aR+ NKT cells worked out at 0.85%.

B4: Hu3F6-H5/Hu3F6-L5 (antibody, human IgG1, V domains shown)
VH: EVQLVQSGAEVKKPGASVKVSCKTSGFAFTSYWMNWVRQAPGQGLEWIGRIDPSDSEAHYAHKFWGRATLTVDKSSSTVYMELSSLRSEDTAVYYCLRSLYGKGDYWGHGTTVTVSS
VL: DVVMTQTPLSLSVTPGQPASISCRSSQSLVHRNGNTYLEWYLQKPGQSPQLLIYKVSNRFSGVPDRFSGSGSGTDFTLKISRVEAEDVGVYYCYQGSHVPLTFGGGTKVEIK
notes: Human IgG1 FES (L234F, L235E, P331S) and human Ig kappa constant domains; also called Hu3F6 VH5/VL5; Hu3F6-VH5/VL5
Consider B4, for which the MFI in assay [13] is 1850 MFI. Moreover, the “IC50 of blocking activity, cAMP-Glo, 300 nM NECA, HEK293-hA2aR cells, supernatant” value in assay [14] is 0.9 nM. In addition, in assay [9], the % of A2aR+ CD4+ T cells stood at 10.6%, the % of A2aR+ CD8+ T cells is 0.41%, the % of A2aR+ NK cells stood at 2.92% and the % of A2aR+ NKT cells turned out to be 4.28%. Further, in [5], the EC50 stood at 0.59 nM. In assay [12], this molecule had a % of A2aR+ CD4+ T cells of 4.76%, a % of A2aR+ CD8+ T cells of 0.15%, a % of A2aR+ NK cells of 5.71% and a % of A2aR+ NKT cells of 4.14%. In addition, in assay [15], the “IC50 of blocking activity, cAMP-Glo, 1.25 uM NECA, HEK293-hA2aR cells, purified antibody” value was found to be 0.6 nM and the “IC50 of blocking activity, cAMP-Glo, 5 uM Adenosine, HEK293-hA2aR cells, purified antibody” value is 0.8 nM.

For the origin of these results see patent US20250206828A1, “ANTI-ADENOSINE RECEPTOR (A2aR) ANTIBODIES AND THE USE THEREOF” (Adept Therapeutics Inc., priority 2022, published 2025).
